SMILES strings stand for the structures.

Results on five molecules are retold here after US20160356723A1, “Light-Up Probes Based On Fluorogens With Aggregation Induced Emission Characteristics For Cellular Imaging And Drug Screening” (NATIONAL UNIVERSITY OF SINGAPORE, priority 2014, published 2016).

One data set has as its system MCF-7 cells. As to the kind of experiment: MTT cytotoxicity, MCF-7. The format is cell-based. The conditions noted are these: 72 h. The method, then:
3-(4,5-Dimethythiazol-2-yl)-2,5-diphenyltetrazolium bromide (MTT) assays were used to assess the metabolic activity of U87-MG and MCF-7 cancer cells. The cells were seeded in 96-well plates (Costar, Ill., USA) at an intensity of 4×10^4 cells mL^−1. After 24 h incubation, the medium was replaced by the probe suspension at different concentration of the prodrug and incubated at 37° C. After the designated time intervals, the wells were washed twice with 1×PBS buffer, and 100 μL of freshly prepared MTT (0.5 mg mL^−1) solution in culture medium was added into each well. The MTT medium solution was carefully removed after 3 h incubation in the incubator at 37° C. DMSO (100 μL) was then added into each well and the plate was gently shaken to dissolve all the precipitates formed. The absorbance of MTT at 570 nm was monitored by the microplate reader (Genios Tecan). Cell viability was expressed by the ratio of absorbance of the cells incubated with probe suspension to that of the cells incubated with culture medium only.
We next compared the relationship between the apoptosis induced fluorescence intensity change in cells and the cytotoxicity profile of the prodrug using both U87-MG and MCF-7 cells as an example. The fluorescence intensities at 480 nm are monitored upon excitation at 365 nm after incubation the cells for 6 h. The cytotoxicity of the cells was evaluated by a standard MTT method after the incubation for 72 h. In this experiment, we studied this effect using both U87-MG and MCF-7 cells. […] Also, we can find that higher cell viability of the cells will show lower fluorescence intensity which means low degrees of cell apoptosis. For example, when both cells are treated with 5 μM TPS-DEVD-Pt-cRGD, the cell viability is only 31% for U87-MG cells after 72 h incubation, while in sharp contrast, the cell viability is 92% for MCF-7 cells at the same conditions.
(§1) We next studied the cytotoxicity profile of the prodrug to MDA-MB-231 and MCF-7 cells by a MTT assay.

The subject of the next data set is MDA-MB-231 cells. As to the kind of experiment: MTT cytotoxicity, MDA-MB-231. It is filed as cell-based. The conditions noted are these: different concentrations, 72 h.
From the text: as §1

Data set [1] has as its target T1, recombinant human caspase-3 (Homo sapiens, UniProt P42574).
T1 construct: purchased R&D Systems
T1 sequence (P42574 29-175 limits assumed): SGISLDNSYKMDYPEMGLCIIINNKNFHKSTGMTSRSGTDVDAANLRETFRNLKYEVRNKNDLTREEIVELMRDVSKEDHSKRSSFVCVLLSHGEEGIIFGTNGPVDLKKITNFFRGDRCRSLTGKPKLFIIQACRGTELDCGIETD
T1 sequence (P42574 176-277 limits assumed): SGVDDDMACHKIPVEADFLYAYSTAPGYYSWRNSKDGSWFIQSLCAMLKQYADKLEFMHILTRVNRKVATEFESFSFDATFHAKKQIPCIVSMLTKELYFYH
As to the kind of experiment: Enzymatic assay: fluorescence light-up on DEVD cleavage by caspase-3. The format is biochemical. The conditions noted are these: ascorbic acid pretreated TPS-DEVD-Pt-cRGD 10 μM, caspase-3 200 pM, inhibitor 10 μM. The method, then: DMSO stock solutions of TPS-DEVD-Pt-cRGD were diluted with a mixture of DMSO and PIPES (v/v=1/199) to 10 μM. Next, each probe was incubated with ascorbic acid or caspase-3 at room temperature and the change of fluorescence intensity was measured. The PL spectra were collected from 420 to 650 nm under an excitation wavelength at 365 nm.
To study the enzymatic response of TPS-DEVD-COOH, we performed in vitro enzymatic assays with recombinant human caspase-3. Mixtures of the ascorbic acid pretreated prodrug (10 μM) and caspases-3 (200 pM) were prepared and incubated in PIPES buffer. After 1 h incubation, the PL spectra were measured in the range from 425 to 650 nm.
The fluorescence change of the TPS-DEVD-Pt-cRGD solution (10 μM) upon addition of ascorbic acid and caspase-3 enzyme was also monitored over time in a mixture of DMSO/PIPEs (v/v=1/199) buffer. […] We further studied the effect of caspase-3 concentration on the solution emission.

A further data set deals with ALP. In words: ALP detection in solution. It is filed as biochemical. Particulars: emission maximum changes from 520 nm to 640 nm. The text has this:
The emission maximum of the solution changes from 520 nm to 640 nm in the presence of ALP.

Turning to `[NH3+][Pt-2]([NH3+])([Cl])([Cl])([O]C(=O)CCC(=O)NCCCC[n+]1ccc(/C=C/c2ccc(C(=C(c3ccccc3)c3ccccc3)c3ccccc3)cc2)cc1)[O]C(=O)CCC(=O)N[C@@H](CC(=O)O)C(=O)N[C@@H](CC(=O)O)C(=O)N[C@@H](CC(=O)O)C(=O)N[C@@H](CC(=O)O)C(=O)N[C@@H](CC(=O)O)C(=O)O` [PyTPE-Pt-D5], the cytotoxicity result with MCF-7 cells and with MDA-MB-231 cells was “do not show significant cytotoxicity” in each case.
As for `COC[C@@H]1CCCN1S(=O)(=O)c1ccc2c(c1)C(=O)C(=O)N2` [5-[(S)-(+)-2-(methoxymethyl)pyrrolidino]sulfonylisatin, reference compound], the “effect of inhibitor pretreatment on caspase-3 induced probe fluorescence” value in data set [1] is on record as “most of the fluorescence is readily competed away”.
Consider `N=C(N)NCCC[C@@H]1NC(=O)[C@H](CCCCNC(=O)[C@H](CC(=O)O)NC(=O)[C@H](CC(=O)O)NC(=O)[C@H](CC(=O)O)NC(=O)[C@H](CC(=O)O)NC(=O)[C@H](CC(=O)O)NC(=O)CCC(=O)[O][Pt-2]([NH3+])([NH3+])([Cl])([Cl])[O]C(=O)CCC(=O)NCCCC[n+]2ccc(/C=C/c3ccc(C(=C(c4ccccc4)c4ccccc4)c4ccccc4)cc3)cc2)NC(=O)[C@@H](Cc2ccccc2)NC(=O)[C@H](CC(=O)O)NC(=O)CNC1=O` [PyTPE-Pt-D5-cRGD], for which the cytotoxicity result in the data set on MCF-7 cells is listed as “minimum toxicity”; in the data set on MDA-MB-231 cells, “much more obvious”.
`CN(C)c1ccc(/C=C/C(=O)c2ccccc2OP(=O)(O)O)cc1` [probe-1]: the “optical response to ALP” value in the data set with ALP is reported as “distinct optical response”.
For `N=C(N)NCCC[C@@H]1NC(=O)[C@H](CCCCNC(=O)[C@H](CC(=O)O)NC(=O)[C@H](CC(=O)O)NC(=O)[C@H](CC(=O)O)NC(=O)[C@H](CC(=O)O)NC(=O)[C@H](CC(=O)O)NC(=O)CCCCCCC(=O)NCCCC[n+]2ccc(/C=C/c3ccc(C(=C(c4ccccc4)c4ccccc4)c4ccccc4)cc3)cc2)NC(=O)[C@@H](Cc2ccccc2)NC(=O)[C@H](CC(=O)O)NC(=O)CNC1=O` [PyTPE-C6-D5-cRGD], the cytotoxicity entry in the data set on MCF-7 cells and in the data set with MDA-MB-231 cells was “do not show significant cytotoxicity” throughout.
